Results reported in the supplement of paper PMC10567573.

B1: ZNF649 (parent)
chain: YHTGKTPFVCPECGQPCSQKSGLI

Variants of: B1
Experiment: protein stability index of a GFP-peptide fusion (GPS, HEK-293T) (PSI 1-6); higher = more stable
Conditions: c terminus: a fixed tail appended
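Note: lentivirally expressed fusions sorted by FACS into six bins by GFP to DsRed ratio, PSI derived from sequencing read proportions per bin multiplied by bin number.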

Protein stability index, by site and new letter:
C10: L 2.06 | T 2.37 | P 1.54 | K 1.76 | S 2.85 | G 2.31 | F 1.98 | R 1.75 | H 1 | I 2.33 | D 1.61
S21: Y 2.56 | I 1.67 | P 1.9 | F 1.89 | Q 1.56 | D 1.76 | M 2.26 | G 2.41 | T 1.96 | R 1.92 | H 1.81
P11: S 1.93 | E 1.61 | R 1.79 | L 1.71 | G 1.43 | M 2.32 | A 2.04 | C 1.65 | N 1.62 | I 1.69
K5: L 2 | G 2.54 | H 1.86 | P 2.66 | Q 1.86 | N 1.81 | M 2.44 | A 1.62 | W 2.1
L23: D 2.12 | G 4.1 | R 1.92 | W 1.16 | Y 1.72 | C 2.83 | N 3.38 | T 2.2 | V 2.58 | E 1.03 | Q 3.01 | A 1.59 | M 1.46
P7: S 1.6 | A 1.73 | Q 1.77 | T 2.52 | D 2.05 | L 2.12 | I 1.76
G14: F 1.94 | I 1.79 | E 1.95 | A 2.16 | R 3.6 | Y 2.27 | P 2.54
Q19: F 2 | T 2.81 | H 2.2 | D 2.37 | N 1.59 | P 2.04 | W 1.23 | R 2.27 | I 1.57 | M 2.49 | E 1.71 | G 1.49 | C 2.69
G4: D 2.48 | R 1.62 | L 2.41 | Y 1.69 | P 1.83 | T 2.62
E12: A 1.96 | Y 2.26 | F 2.31 | W 2.06 | M 1.23 | S 2.11 | L 2.16 | Q 1.9 | I 1.91 | H 1.54 | G 3.37 | D 3.08 | T 2.07
C17: M 2.14 | G 2.94 | I 2.01 | L 1.66 | Y 2.35 | A 3.38 | P 2.54 | E 1.48
K20: Y 3.04 | E 1.35 | R 2.69 | V 1.43 | N 1.07 | A 2.05 | T 1.8 | H 2.43 | D 1.72
Y1: T 3.06 | K 2.72 | C 3.52 | S 3.72 | A 3.92 | V 3.5 | D 3.98 | P 3.28 | L 2.51 | W 2.48 | N 3.08 | I 2.69
T6: I 2.22 | V 1.65 | H 2.91 | P 2.19 | M 1.68 | G 1.71
F8: V 1.78 | S 2.15 | R 2.09 | I 2.24 | H 2.41 | N 2.16 | M 1.62 | A 1.84 | P 2.46 | D 2.17 | T 1.67
I24: Q 2.33 | M 1.84 | N 1.99 | P 1.54 | C 3.08 | L 1.52 | V 1.67 | G 2.94 | E 2.12 | H 2.42
P16: I 1.87 | C 4.29 | R 1.54 | Q 2.37 | S 1.9 | V 2.44 | A 2.79 | L 2.82 | G 2.99 | T 1.34
T3: H 2.78
